Results: patent US20260242478A1 (published 2026)

Key:
[1] = biological target: T1, Anti-CD28 Fab (SEQ ID NOs: 696, 697); assay: phage binding ELISA on captured anti-CD28 Fab; competitor: CD28 antigen pre-incubated in the well;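 note: clonal phage supernatants added briefly to wells preblocked with or without CD28, bound phage detected through an HRP-linked anti-M13 antibody, wells with blocking buffer alone as comparison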
T1 construct: Biotinylated and captured on neutravidin coated plates in the phage ELISA
T1 sequence (VH, as listed by the source, chain 1 of 2): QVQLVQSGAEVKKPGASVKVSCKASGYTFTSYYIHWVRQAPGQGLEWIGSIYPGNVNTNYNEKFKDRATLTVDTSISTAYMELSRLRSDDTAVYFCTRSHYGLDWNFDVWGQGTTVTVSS
T1 sequence (VL, as listed by the source, chain 2 of 2): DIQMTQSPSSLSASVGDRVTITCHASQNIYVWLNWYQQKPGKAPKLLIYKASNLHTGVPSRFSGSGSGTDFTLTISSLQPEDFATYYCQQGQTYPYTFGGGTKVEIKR
Procedure: (§1) Clonal phage were harvested as crude supematants and screened via standard ELISAs. […] Prior to the addition of clonal phage, wells were incubated with blocking buffer and CD28 antigen or blocking buffer alone. Without washing or aspirating, clonal phage supematants were then added to the wells and incubated for a short time. Wells were then washed followed by detection of bound phage using a horse radish conjugated anti-M13 antibody. Clonal phage of interest were then sent for sequence analysis.

[2] = biological target: T1, Anti-CD28 Fab (SEQ ID NOs: 696, 697); assay: phage binding ELISA; biotinylated anti-CD28 Fab on neutravidin plate, clonal phage detected with anti-M13-HRP;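 note: crude clonal phage supernatants added briefly to wells preincubated in blocking buffer with or without CD28 antigen, then washed before detection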
[3] = biological target: Anti-CD28 Fab (SEQ ID NOs: 696, 697); assay: phage binding ELISA; Fab-coated wells pre-incubated with CD28 antigen as competitor;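 note: clonal phage supernatants added to wells preincubated with CD28 antigen or blocking buffer only, bound phage detected with HRP-conjugated anti-M13 antibody, buffer-only wells as control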
Target sequence in this assay (VH, as listed by the source, chain 1 of 2): as the sequence (VH, as listed by the source, chain 1 of 2) above
Target sequence in this assay (VL, as listed by the source, chain 2 of 2): as the sequence (VL, as listed by the source, chain 2 of 2) above
Procedure: (§2) Clonal phage were harvested as crude supematants and screened via standard ELISAs. […] Prior to the addition of clonal phage, wells were incubated with blocking buffer and CD28 antigen or blocking buffer alone. Without washing or aspirating, clonal phage supematants were then added to the wells and incubated for a short time. Wells were then washed followed by detection of bound phage using a horse radish conjugated anti-M13 antibody.

[4] = biological target: Anti-CD28 Fab (SEQ ID NOs: 696, 697); assay: phage binding ELISA; biotinylated Fab on neutravidin plate, bound phage detected with anti-M13-HRP
Target sequence in this assay (VH, as listed by the source, chain 1 of 2): as the sequence (VH, as listed by the source, chain 1 of 2) above
Target sequence in this assay (VL, as listed by the source, chain 2 of 2): as the sequence (VL, as listed by the source, chain 2 of 2) above
Procedure: as §2

[5] = biological target: T2, Anti-CD28 Fab (SEQ ID NOs: 696, 697); assay: phage ELISA on captured anti-CD28 Fab; wells pre-incubated with CD28 antigen as competitor;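 note: clonal phage from crude supernatants added to wells pretreated with blocking buffer with or without CD28, bound phage read by ELISA with HRP-conjugated anti-M13 antibody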
T2 construct: In the phage ELISA the Fab was biotinylated and captured on neutravidin coated plates
T2 sequence (VH, as listed by the source, chain 1 of 2): as the sequence (VH, as listed by the source, chain 1 of 2) above
T2 sequence (VL, as listed by the source, chain 2 of 2): as the sequence (VL, as listed by the source, chain 2 of 2) above
Procedure: as §1

[6] = biological target: T2, Anti-CD28 Fab (SEQ ID NOs: 696, 697); assay: phage ELISA; biotinylated anti-CD28 Fab on neutravidin plate, bound phage detected with anti-M13-HRP
Procedure: as §2

Binder	Anti-CD28 Fab signal in the presence of CD28 [3]	Anti-CD28 Fab signal [4]	further results
TCSAGATYKWPVCL (tested as crude phage supernatant) [Phage-1559]	–	–	Anti-CD28 Fab signal in the presence of CD28 (phage binding ELISA) [1]: 0.06; Anti-CD28 Fab signal (phage binding ELISA) [2]: 1.47
TCSAGAHWVWPYCL [Phage-1596]	0.09	1.37	–
TCSAGAEYTWPLCF [Phage-1591]	0.08	1.4	–
TCAAGATWLWPVCL [Phage-1593]	0.08	1.39	–
PCAAGAHYTWPTCL [Phage-1604]	0.07	1.34	–
SCAAGATYGWPECF [Phage-1597]	0.07	1.36	–
TCSAGAGYPWPTCL [Phage-1600]	0.06	1.36	–
SCAAGAHYPWPECL [Phage-1607]	–	–	Phage binding ELISA, Anti-CD28 Fab signal in the presence of CD28 [5]: 0.05; Phage binding ELISA, Anti-CD28 Fab signal [6]: 1.32
SCAAGAAWGWPACF [Phage-1592]	0.09	1.39	–
LCSAGAMWEWPLCL [Phage-1599]	0.07	1.36	–
SCSAFFHFHWPACL [Phage-1594]	0.06	1.38	–
TCSAGAHYSWPKCF [Phage-1606]	–	–	Phage binding ELISA, Anti-CD28 Fab signal in the presence of CD28 [5]: 0.07; Phage binding ELISA, Anti-CD28 Fab signal [6]: 1.33
SCAAGATWAWPACL [Phage-1598]	0.06	1.36	–
TCSAGALWEWPMCF [Phage-1603]	0.06	1.35	–
SCSAGATYEWPYCF (tested as crude phage supernatant) [Phage-1560]	–	–	Anti-CD28 Fab signal in the presence of CD28 (phage binding ELISA) [1]: 0.06; Anti-CD28 Fab signal (phage binding ELISA) [2]: 1.47
TCSAGAAWTWPLCF [Phage-1601]	0.06	1.36	–
TCSAGANWVWPLCL [Phage-1595]	0.07	1.38	–
TCSAGAAYEWPECF [Phage-1602]	0.06	1.36	–
SCSAGATYTWPACL [Phage-1605]	–	–	Phage binding ELISA, Anti-CD28 Fab signal in the presence of CD28 [5]: 0.07; Phage binding ELISA, Anti-CD28 Fab signal [6]: 1.34
